According to the supplement of paper PMC9170038:

Test system: MS2 coat protein
Experiment: apparent KD of MS2 coat protein; designed switch direction (-1 OFF switch, 1 ON switch): 1; higher = weaker reporter binding
Method in brief: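 Normalised cluster fluorescence was curve-fitted, and each design's median over clusters is its apparent KD. Before this, SNAP-549-labelled MS2 coat protein was titrated from 0.7 or 1.5 nM, doubling to 3 µM, over RNA switches transcribed on Illumina chips by stalled E. coli RNA polymerase. Titrations had no input, 200 uM small-molecule ligand, or an oligonucleotide input, and steps lasted 0.8–1.5 h (lowest) to 10–20 min (highest).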

[1] = Eterna round: R95, input ligand: FMN 200 uM
[2] = Eterna round: R95, input ligand: microRNA oligo, concentration not stated
[3] = Eterna round: R95, input ligand: none
[4] = input ligand: microRNA oligo, concentration not stated

Row | Sequence | apparent KD of MS2 coat protein [1] [µM] | apparent KD of MS2 coat protein [2] [µM] | apparent KD of MS2 coat protein [3] [µM] | apparent KD of MS2 coat protein (input ligand: FMN 200 uM) [µM] | apparent KD of MS2 coat protein [4] [µM] | apparent KD of MS2 coat protein (input ligand: none) [µM]
1 | AUUAAACAUGAGGAUCACCCAUGUCAACAUAGUCGAGGAUAUGGGCAAAUAAAAUAAGAACCAGAAGGCGAAUAAU [salish99_ss1_r3_075] (puzzle: Same State 1) | 0.0452 | 0.266 | 0.335 |  |  | 
2 | GGUCGGUCCUACAUGAGGAUCACCCAUGUUCCGGAAACGGCAUAGGAUAUCUGUCCGAAAAGGUCAGAGAAGGGUGAACCGACC [Fiskers NG3ss - 73] (Eterna round: R96, puzzle: Same State NG 3) |  |  |  | 0.153 | 0.118 | 0.189
3 | CAGCGCUGUUGAGAGGAUAUGCGGUGAUGGACAUGAGGAUCACCCAUGUUAGCGAUAGCAUUACGGUAGAAGGCUCUACAGCUGC [Soteed Omei mod 3] (puzzle: Same State 2) |  | 0.014 |  |  |  | 
4 | AGUCCAGCCUGAGCUGGACAAAAGCAUGUACAUGAGGAUCACCCAUGUUCAUGUGCAAGCUUUUUGCUCGUCUUAAA [Zipper 52 - 4] (puzzle: Sensor for hsa-mir-208a) | 0.0649 | 0.0114 | 0.0712 |  |  | 
5 | GGUGUACAUGAGGAUCACCCAUGUCGACCGCUCACAGGAUAUUUAAUACAAACUGGUAGCGGAGAAGGGUGAGGAA [Oresbeve] (Eterna round: R96, puzzle: Same State 1) |  |  |  | 0.523 | 0.16 | 0.188
6 | GCUAGAAUUAAAGCCAACAUGAGGAUCACCCAUGUAUGUUGGCAGGAUAUCGUUUGCAAAGCAAACGAGAAGGGCCAUACUAGC [Mat - Same State NG 3 - JL Mod - D22] (Eterna round: R96, puzzle: Same State NG 3) |  |  |  | 0.0334 | 0.0875 | 0.118
7 | UUAAUGAAGUAAGGAUAUACAUGAGGAUUUCUCGUAGAAGGUACUAUACAUGAGGAUCACCCAUGUGCCGGUCAGAAGACUGGA [Mat - Same State NG 1 - JL mod - D10] (Eterna round: R96, puzzle: Same State NG 1) |  |  |  |  | 0.301 | 
8 | GGGCCAGCUUGUGCUGGGCCUUCGCAUGCACAUGAGGAUCACCCAUGUCGUGUACAUGCUUUUUGCUCGUCUUUAAA [Photon Torp-11] (puzzle: Sensor for hsa-mir-208a) | 0.0396 | 0.014 | 0.0408 |  |  | 
9 | CGUUCUUACUCAGGACGGAGAGUAGAGGAACAUGAGGAUCACCCAUGUAUGAGCUUUUUGCUCGUGAUUAACAGUAG [JR_SHM208a_Sub013] (Eterna round: R96, puzzle: Sensor for hsa-mir-208a) |  |  |  | 0.103 | 0.0555 | 0.0868
10 | CUAAAACAUGAGGAUCACCCAUGUCAACAAAGUCGAGGAUAUGGGCAAAUAAAAUAAGAACCAGAAGGCGAAUAAU [salish99_SS1_r3_012] (puzzle: Same State 1) | 0.0423 | 0.422 | 0.485 |  |  | 
11 | GUGGAGGGUUAAGGAUAUUGAAUACAUAUGUUUAACAUGAGGAUCACCCAUGUGGGUUGCGGUAUCGAGAAGGUAAAUUACUGG [salish99_SSNG2_r04_035] (Eterna round: R96, puzzle: Same State NG 2) |  |  |  | 0.192 | 0.151 | 0.133
12 | GGUCGGACUCACAUGAGGAUCACCCAUGUUGCGGAAACGCGAUAGGAUAUCUGUCCGAAAAGGUCAGAGAAGGGUCAACCGACC [Fiskers NG3ss - 64] (Eterna round: R96, puzzle: Same State NG 3) |  |  |  | 0.447 | 0.486 | 0.567
13 | AUCAUUUAUGCAGGAUAUGAUUAACAUGAGGAUCACCCAUGUGGUGUUGUGAGUAAGGAGAGUGAUCAGAAGGGCAUUUUUUUU [JMF's solution 72] (Eterna round: R96, puzzle: Same State NG 2) |  |  |  | 0.476 | 0.296 | 0.482
14 | UGGUCUCACUUAGGAUAUUAGCACCGAAAGAGCUAAGAAGGAGGUGAAACUCUCACAUGAGGAUCACCCAUGUACACCCUAGGG [Eternabot solution 3] (Eterna round: R96, puzzle: Same State NG 1) |  |  |  | 0.162 | 0.503 | 1.08
15 | ACAAGCUUUUUGCUCAUCUUAUGUCCGAAACAUGAGGAUCACCCAUGUAUAGAUUAUGUGUUGUUGUAGAUACAAGA [JR_SHM208A_Sub063] (puzzle: Sensor for hsa-mir-208a) | 0.0227 | 0.0196 | 0.0283 |  |  | 
16 | UGCAUACAUGAGGAUCACCCAUGUCAACGUAGCCGAGGAUAUGGAUUGCCGUGAGGCGUGCCAGAAGGCGGAGAGG [Same State 1 - Mod of Vinnie Teenbexe] (puzzle: Same State 1) | 0.0291 | 0.0425 | 0.059 |  |  | 

Row | Sequence | apparent KD of MS2 coat protein [1] [µM] | apparent KD of MS2 coat protein [2] [µM] | apparent KD of MS2 coat protein [3] [µM] | apparent KD of MS2 coat protein (input ligand: FMN 200 uM) [µM] | apparent KD of MS2 coat protein [4] [µM] | apparent KD of MS2 coat protein (input ligand: none) [µM]
17 | AGCUAUUACGAAGGAUAUUGUAACAUGAGGAUCACCCAUGUUUACAUGAUUAAUUGUGAUCACGUCGAGAAGGUUGUACUAACA [SameState NG2 #33] (Eterna round: R96, puzzle: Same State NG 2) |  |  |  | 0.0175 | 0.0165 | 0.019
18 | GGAGCCGGCACUGAGGAUAUUCAUUUUAAAACAUGAGGAUCACCCAUGUAGGCCAGAAGGCCUUGGGAGAAGGCAGGUCGGCCCG [Bibimoar - 6] (puzzle: Same State 2) | 0.0185 | 0.19 | 0.271 |  |  | 
19 | GUUACAUGAGGAUCACCCAUGUAUGUGUGGGAGUAAGUGUCUUAGGAUAUCUAGUAUUUGAUUUAAGAGAAGGAAGAUUGUUGU [JMF's solution 60] (Eterna round: R96, puzzle: Same State NG 3) |  |  |  | 0.121 | 0.0754 | 0.11
20 | AUAGUUGCCGAAGGAUAUGAUGAGGAUCACCCAUCAGAAGGUCGGCUAUUGGGUGGAUAUGAGGAUCACCCGUGUUCUUUGGUC (Eterna round: R96, puzzle: Same State NG 1) |  |  |  | 0.0224 | 0.0167 | 0.0229
21 | GUUACAUGAGGAUCACCCAUGUAUGUGUGGGAGUAAGUGUCUUAGGAUAUCUAUCAUUAAAUUUAAGAGAAGGAAGAUUGUUGU [JMF's solution 91] (Eterna round: R96, puzzle: Same State NG 3) |  |  |  | 0.105 | 0.0847 | 0.121
22 | UAAUUAAGUCAAGGAUAUCACGUCGAAUAGACGUGAGAAGGUGAUUAAUACAUGAGGAUCACCCAUGUAAUACAUGAAUAAUUA [SSNG1/11-B1] (Eterna round: R96, puzzle: Same State NG 1) |  |  |  | 0.0383 | 0.0616 | 0.0708
23 | CUGUGUUGCGGGCAGGAUAUGUACUUGAGUACAUGAGGAUCACCCAUGUGCGGGUGUUUCACCCGACAGAAGGGCCAAUCGCGAC [JL-ss2-3.23 ViennaUCT mod] (puzzle: Same State 2) | 0.0688 | 0.311 | 1.52 |  |  | 
24 | UAGUGAUUGCAAGGAUAUGCUUAUGUUUAAUUUUAUUUAUUAUCUAACAUGAGGAUCACCCAUGUGCAGAAGGUGCUUGAUUUG [JR_SSNG2_Sub074] (Eterna round: R96, puzzle: Same State NG 2) |  |  |  |  | 0.0484 | 
25 | GUGGCGGGUUGAGGAUAUUGGUUGCCUAUGUUUAACAUGAGGAUCACCCAUGUGGGUUGCGGUUUCGAGAAGGUAGGUUGCUGG [salish99_SSNG2_r04_046] (Eterna round: R96, puzzle: Same State NG 2) |  |  |  | 0.228 | 0.109 | 0.188
26 | UGCAUACAUGAGGAUCACCCAUGUCAACGUAGUCGAGGAUAUGGGCAGCCGUGAGGCGUACCAGAAGGCGAAGAGG [JL-ss1-3.04 ViennaUCT mod] (puzzle: Same State 1) | 0.0287 | 0.0622 | 0.0779 |  |  | 
27 | GCCACACAUGAGGAUCACCCAUGUAAUUACAUGGGAGGAUAUCAGUGCUCGAAAGAGCACUGAGAAGGCCUGUGGC [SS1 - Omei A v3] (puzzle: Same State 1) | 0.134 | 0.0896 | 0.0678 |  |  | 
28 | UGAGCCGGCACUGAGGAUAUUCAUAUUUAAACAUGAGGAUCACCCAUGUAGGCCAGAAGGCCUUGGGAGAAGGCAGGUCGGCUCU [salish99_ss2_r3_078] (puzzle: Same State 2) |  | 0.258 |  |  |  | 
29 | GGAGCCGGCCUAGGAUAUUUCAUAUUUAAACAUGAGGAUCACCCAUGUAGGCCAGAAGGCCUUGGGAAGAAGGAGGUCGGCUCC [Loop Effect - U25,U26,U27] (Eterna round: R96, puzzle: Same State NG 2) |  |  |  |  | 0.0574 | 
30 | UUAUUAAUUACAUGAGGAUCACCCAUGUUUUUAUGUCAGAGACAGGAUAUAGAAGUCUCGUUUUACUAGAAGGGUCAUUAUAAG [JR_SSNG3_Sub015] (Eterna round: R96, puzzle: Same State NG 3) |  |  |  | 0.0186 | 0.0164 | 0.0192
31 | CAUCUAUACGUAGGAUAUGUAGGAUAUGCCUACAUGAGGAUCACCCAUGUUCGCAUGGCAGAAGGACAGAAGGACGAACUACUU [pwkr ssNG2 2FMN + 1F5.6] (Eterna round: R96, puzzle: Same State NG 2) |  |  |  | 0.0324 | 0.174 | 0.234
